The text below walks through data of patent US20210260155A1, “H-NOX Proteins for Treating Cardiovascular and Pulmonary Conditions” (OMNIOX.INC., priority 2018, published 2021).

This assay in a line: NO reactivity. It counts as biochemical. As for the experimental part:
NO reactivity is measured using purified proteins (H-NOX, polymeric H-NOX, Homo sapiens hemoglobin (Hs Hb) etc.) prepared at 2 μM in buffer A and NO prepared at 200 μM in Buffer A (Buffer A: 50 mM Hepes, pH 7.5, 50 mM NaCl). Data are acquired on a HI-TECH Scientific SF-61 stopped-flow spectrophotometer equipped with a Neslab RTE-100 constant-temperature bath set to 20° C. (TGK Scientific LTD., Bradford On Avon, United Kingdom). The protein is rapidly mixed with NO in a 1:1 ratio with an integration time of 0.00125 sec. The wavelengths of maximum change are fit to a single exponential using the software that is part of the spectrometer, essentially measuring the rate-limiting step of oxidation by NO. The end products of the reaction are ferric-NO for the HNOX proteins and ferric-aquo for Hs Hb.

B1: wild-type T. tengcongensis H-NOX: wild-type Thermoanaerobacter tengcongensis H-NOX protein, SEQ ID NO:2 (protein, listed as Thermoanaerobacter tengcongensis)
chain: MKGTIVGTWIKTLRDLYGNDVVDESLKSVGWEPDRVITPLEDIDDDEVRRIFAKVSEKTGKNVNEIWREVGRQNIKTFSEWFPSYFAGRRLVNFLMMMDEVHLQLTKMIKGATPPRLIAKPVAKDAIEMEYVSKRKMYDYFLGLIEGSSKFFKEEISVEEVERGEKDGFSRLKVRIKFKNPVFE
Take B1: the NO reactivity result is “low”.
